These results are taken from the DeepSol protein solubility set.

A short description of the series: soluble on expression in E. coli; label from the status in PepcDB or PDB records.
“MSLVLQMKSGGVVSDARTELDTQRLAKYIGGKHALVAQGGGQRGIFTAGVLDAFLLSNFDPYHEFYGTSAGALNLCAFLSRQTGLSKAFILELTTRAEFFHLFSYIRRKQYMNMQWALDRIGEYPYRLDLDMARQALGKRKAYAAVTSADDLKDAYFPMLGADWQQVLLATCAIPGLYPEPVTLAGKQYIDGGVSASIPVQEAWRKEARFITVIRTEFMSKEEETPSPSATELPLWLREPLNHLQHQLQHKWSGWRQEWNEFLQQQKLRAKEQKKEQKHLDALNGGRWLFGADDIYRLSHLLGSKFDAGLADLLMVHYQTYTLTSEFLDAHHDDTFIAQIMPSEPLHSNSLLSSPEALQYDYELGLKAGYRFLKAYSEAETFRKEGHHHHHH”: the “soluble on expression in E. coli” value is reported as “soluble”.

In the case of “MTQTLLAIENLSVGFRHQQTVRTVVNDVSLQIEAGETLALVGESGSGKSVTALSILRLLPSPPVEYLSGDIRFHGESLLHASDQTLRGVRGNKIAMIFQEPMVSLNPLHTLEKQLYEVLSLHRGMRREAARGEILNCLDRVGIRQAAKRLTDYPHQLSGGERQRVMIAMALLTRPELLIADEPTTALDVSVQAQILQLLRELQGELNMGMLFITHNLSIVRKLAHRVAVMQNGRCVEQNYAATLFASPTHPYTQKLLNSEPSGDPVPLPEPASTLLDVEQLQVAFPIRKGILKRIVDHNVVVKNISFTLRAGETLGLVGESGSGKSTTGLALLRLINSQGSIIFDGQPLQNLNRRQLLPIRHRIQVVFQDPNSSLNPRLNVLQIIEEGLRVHQPTLSAAQREQQVIAVMHEVGLDPETRHRYPAEFSGGQRQRIAIARALILKPSLIILDEPTSSLDKTVQAQILTLLKSLQQKHQLAYLFISHDLHVVRALCHQVIILRQGEVVEQGPCARVFATPQQEYTRQLLALS”, the “soluble on expression in E. coli” value is given as “not soluble”.

For “MTDKTSLSYKDAGVDIDAGNALVGRIKGVVKKTRRPEVMGGLGGFGALCALPQKYREPVLVSGTDGVGTKLRLAMDLKRHDTIGIDLVAMCVNDLVVQGAEPLFFLDYYATGKLDVDTASAVISGIAEGCLQSGCSLVGGETAEMPGMYHGEDYDVAGFCVGVVEKSEIIDGSKVSDGDVLIALGSSGPHSNGYSLVRKILEVSGCDPQTTELDGKPLADHLLAPTRIYVKSVLELIEKVDVHAIAHLTGGGFWENIPRVLPDNTQAVIDESSWQWPEVFNWLQTAGNVEHHEMYRTFNCGVGMIIALPAPEVDKALALLNANGENAWKIGIIKASDSEQRVVIE”, the “soluble on expression in E. coli” value was “soluble”. Turning to “GPGSMNIRQRKSERHKEVLRKLSQNGGNKNCFDCGMRGPLYVVSDFGILVCSGCSAVHRSFQHKVKGITMSEFTDDEIARFSVSGNDRARKVWLSTFHDQLPRSGNVMALKDHVHVVFEERRFWSAQELSA”, the “soluble on expression in E. coli” value is “soluble”.

Regarding “QKEQHSQLNQTKIAYEQRLLNDLEDMDDPLDLFLDYMIWISTSYIEVDSESGQEVLRSTMERCLIYIQDMETYRNDPRFLKIWIWYINLFLSNNFHESENTFKYMFNKGIGTKLSLFYEEFSKLLENAQFFLEAKVLLELGAENNCRPYNRLLRSLSNYEDRLREMNIVENQNSVPDSRERLKGRLIYRTAPFFIRKFLTSS”, the “soluble on expression in E. coli” value is given as “soluble”. Regarding “MGSDKIHHHHHHINKDNITTDTAEESKQQDSNKKQELPTATYMGGSNTITEVCDELGSAGASHVDTFKEWVTDFADSAGKNAKLKDTWSDAYKMKADTVKCMDGWEKKHDYSDADCRMTAFLLLDGLLHAQSTEDSYSGTYLMFDTEAIDNVDRYEIIRQNKDMFTTLYGEKSITDDKHPEKTFSDNWKKYGFQIDSNCISLISIAIYDPDSDAMFVGHTGVLIKYSDYYLFVEKIAFEQPYQATKVNNMDELLSILSLRPEYFGEEKEAGPFVYNNGDYVGTLELQG”, the “soluble on expression in E. coli” value was “not soluble”.

Consider “MISVNDFRTGLTIAVDNGLWQVLDFQHVKPGKGAAFVRSKLRNLRTGSVQEKTFRAGEKVEKAHIENRRMQYLYASGEAHVFMDNGTYEQIELGEKQIERELKFLKENMEVSIMTYQGEVLGVELPNTVELQVTETEPGIKGDTASNVTKPATLETGLVVQVPIFINEGEMLIINTGEGKYVSRA”, for which the “soluble on expression in E. coli” value is on record as “soluble”. Consider “MSLVMGQEKLYIEKELSWLSFNERVLQEAADKSNPLIERMRFLGIYSNNLDEFYKVRFAELKRRIIISEEQGSNAHSRHLLGKIQSRVLKADQEFDGLYNELLLEMARNQIFLINERQLSVNQQNWLRHYFKQYLRQHITPILINPDTDLVQFLKDDYTYLAVEIIRSDSIRYALLEIPSDKVPRFVNLPPEAPRRRKPMILLDNILRYCLDDIFKGFFDYDALNAYSMKMTRDAEYDLVHEMEASLMELMSSSLKQRLTAEPVRFVYQRDMPNALVEVLREKLTISRYDSIVPGGRYHNFKDFINFPNVGKANLVNKPLPRLRHIWFDKAQFRNGFDAIRERDVLLYYPYHTFEHVLELLRQASFDPSVLAIKINIYRVAKDSRIIDSMIHAAHNGKKVTVVVELQARFDEEANIHWAKRLTEAGVHVIFSAPGLKIHAKLFLISRKENGEVVRYAHIGTGNFNEKTARLYTDYSLLTADARITNEVRRVFNFIENPYRPVTFDYLMVSPQNSRRLLYEMVDREIANAQQGLPSGITLKLNNLVDKGLVDRLYAASSSGVPVNLLVRGMCSLIPNLEGISDNIRAISIVDRYLEHDRVYIFENGGDKKVYLSSADWMTRNIDYRIEVATPLLDPRLKQRVLDIIDILFSDTVKARYIDKELSNRYVPRGNRRKVRAQLAIYDYIKSLEQPEEGHHHHHH”, for which the “soluble on expression in E. coli” value was “soluble”.

With “MSPPLVIKNGTVVNEDGMFKADVLVRNGIIVEVSPNITALPDTEVIDATDRLVIPGGIDPHTHMQMPYMGEVTKDDFLKGTEAAVAGGTTMIIDFCCPDHRNGESLIAGYNRWRSWADPKVCCDYGLSVAITMWRPETAEQMAIITSPEFGVNSFKFYMAYENTLMVRDDELFRGMQECAKLRALARVHCENGSVIKEKEIDLLAKGVTGPEGHTQSRPEEIEAEATNRACVLAAQANCPVYIVHVMTKGAASAISHHRAQGSIVFGEPIAAGLALDGSHYYNEDWLHAARYVMSPPLSRDPTTPELLMKLLAAGELHLTGTDNCTYDCRQKSLGKGNFTKIPNGINGVEDRMSVVWEKGVHSGIIDPMRYVSITSSTAAKIFNIYPRKGRIAVGSDADIVIFNPNATRTISKDTHHHNLDFNIFEGINCHGVAEVTISRGRIVWAHGKLQTVPGSGKFIPLLANSPFVFSTHEKREQKIQPRIVERLE”, the “soluble on expression in E. coli” value is “not soluble”. For “GMIKIAIVGFGTVGQGVAELLIRKREEIEKAIGEFKVTAVADSKSSISGDFSLVEALRMKRETGMLRDDAKAIEVVRSADYDVLIEASVTRVDGGEGVNYIREALKRGKHVVTSNKGPLVAEFHGLMSLAERNGVRLMYEATVGGAMPVVKLAKRYLALCEIESVKGIFNGTCNYILSRMEEERLPYEHILKEAQELGYAEADPSYDVEGIDAALKLVIIANTIGVKASYEDVEVTGITQITPEAFQVAAEKGYTIRLIAEVSREKLKVSPRLVPFHHPLAIKGTMNAAMFKTDTAGSIFVAGRGAGKEETASAILSDLYEIYAGPR”, the “soluble on expression in E. coli” value is listed as “soluble”. Take “MSDDGAFERDTTSFRHWVGDDVPPAAGRYHLYVSYACPWAHRTLLVRALLGLEDAISVSVVDPVRYDQGWTFDPEKPGCTPDHVFGGTHLRDVYTEADPEYTGRVTVPVLYDTDADTIVNNESEEIMRMLDVAFDDHAARDVDLYPEGYRDEVDRLIEDIYDPINNGVYRAGFADSQRAYDNAVDDLFEALAHYDDVLAEQRYLAGDVLTEADVAMFTTLYRFDEVYHTHFKCNRKRISDYDNLWPYLRELCQLPGVADTLYMEHVKQHYYRSHGHLNPKRLVPTGPNPAFFAPHDRDQLEHHHHHH”: the “soluble on expression in E. coli” value is on record as “soluble”. For “MSHSTYSLSFVASPSEEAQTALKELKAVYSDTPFEEADVIVALGGDGFMLQILNETMNSGKRVYGMNRGSVGFLMNDFRVEGLIQRIAVASGNDFHPLRMTTTDSDGDEFTALAMNEVSLFRQSHQAAKLRVEVDGKVRLEELICDGMMVATPAGSTAYNFSAHGPILPLESPLLALTPVSAFRPRRWRGALLPNKVTVDIHVLERDKRPVNAVADHTEVKSVRHVRIAQSQDRTAKILSDPDRSWSDRVLAEQFNNLEHHHHHH”, the “soluble on expression in E. coli” value is “not soluble”. “MGSDKIHHHHHHMIIDTHIHAYPTSDDSKMTLEEIVAQARIIGLDGICITDHDSNEIMARAHEYRKQMGYPIFVGAEVFTWEGDVIVFGLERLPEERVSARYLLDLVNKANGVAISAHPFRQNNRGMGNSIREHKDLHGVEAFNGSTDHANNMKACDLAMELGIPVFGASDAHNTEALGKFATVFPNGLKDEKDLIEAIKMGKVYPVAYNHSADAKWTVIPPIG”: the “soluble on expression in E. coli” value is listed as “not soluble”. Consider “MGSDKIHHHHHHMNKNNQYVLSLACQDAPGIVSEVSTFLFNNGANIVEAEQFNDEDSSKFFMRVSVEIPVAGVNDFNSAFGKVVEKYNAEWWFRPRTDRKKVVIMVSKFDHCLGDLLYRHRLGELDMEVVGIISNHPREALSVSLVGDIPFHYLPVTPATKAAQESQIKNIVTQSQADLIVLARYMQILSDDLSAFLSGRCINIHHSFLPGFKGAKPYHQAHTRGVKLIGATAHFVTADLDEGPIIAQDVEHVSHRDSAEDLVRKGRDIERRVLSRAVLLFLEDRLIVNGERTVVFAD”, for which the “soluble on expression in E. coli” value is given as “not soluble”. Under “MAHHHHHHMDINNIMEEVQAIKVLPHMMFNASKLKVLSDYVNVAFENNEYYDNDVMLTLLRLFCLYPHCYDKDIIKKILICVLYNINNVDMNMYMSLINSSLYDDNIKSVIYIYELIKNCQYKKLWNCINNNIGNEYNNCDYSYLKNDKNFICNIRKYILNTISISFESIYLKNMSEYLNIQDNTQLEQFLNENKWTIKMINHKGKDEQICYNGNIETVQNKKNINTYFTEDNIGSYITKLNH” stands “not soluble”. Under “ILYLHGGYNTLQPSPFHWRLLDKLTLNTLHEVVLPIYPKSPDYHYLETFKAIRDVYNQLVEEVGANNIVMMGDGSGGGLALSFVQSLINDNQEVPRKLFLLSPLLDATLTNPNITKTLEENDILVSRFGVHQLMKSWTNDLPLSDARISPLYGTLKGLPPIYMYGGGREILSPDMHAFTHALEECGNDVEFKEYPKMVHDFPIYPIRQSHKVLKHITKSI” stands “not soluble”; under “MSLQNKTVFVGISGGVDSAVSALLLKQQYREVIGIFMECWDNTLNNDQLGHRAFNEHKSGCSSKEDFREAQAIAQLLGIKLIKQNLVEPY”, “soluble”; under “SAVFADLDLRAGSDLKALRGLVETAAHLGYSVVAINHIVDFKEKKQEIEKPVAVSELFTTLPIVQGKSRPIKILTRLTIIVSDPSHCNVLRATSSRARLYDVVAVFPKTEKLFHIACTHLDVDLVCITVTEKLPFYFKRPPINVAIDRGLAFELVYSPAIKDSTMRRYTISSALNLMQICKGKNVIISSAAERPLEIRGPYDVANLGLLFGLSESDAKAAVSTNCRAALLHGETRKTAFGIISTVKKPRPSEGDEDCLPASKKAKCEG”, “soluble”. Turning to “MGSDKIHHHHHHMSTVQDASSVGSLFGAEAAKTSKSGSSDTQDRFLSLLVAQMKNQDPLNPLDNAEVTSQMAQLSTVEGIENMNKSLEALASSMGASQMSQAANLIGHAVLVPGNAVGPGQLENLMGFELTRPADKVTLDIHDAGGNLVRSVDLGPRDAGVNVVAWDGLTGSGAVAPAGAYSFKVSAVQGGQAQSSIALNVGLVNSVSQNSEGVQLNLAGNGSVGYADIREIF”, the “soluble on expression in E. coli” value was “not soluble”.
